Measured values as given in the supplement of paper PMC12783771.
± gives the standard deviation of the averaged measurements.

B1: library; a variant is named by its letters at X, in order (parent)
chain: MNIQIGELAKRTACPVVTIRFYEQEGLLPPPGRSRGNFRLYGEEHVERLQFIRHCRSLDMPLSDVRTLLSYRKRPDQDCGEVXMLLDEHIRQVESRIGALLELKHHLVELREACSGARPAQSCGILQXLSXCVCXTRGTTAHXSD

How the values were obtained:
[1] = variants of: B1; assay: sfGFP reporter fluorescence (15 h) (µM FITC); higher = higher leak; settings: library round: Round 2; ligand: none
Method: (§1)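 Cell-free biosensing: 1 µL Echo-assembled CFE reactions with linear PbrR variant templates (5 nM) and pPbrR-sfGFP reporter, with 1 µM Pb, 30 µM Zn or no ligand; endpoint sfGFP fluorescence after 15 h at 30 °C calibrated as µM FITC. Round 2 ML-predicted PbrR mutants; up to 3 biological replicates.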

[2] = variants of: B1; assay: sfGFP reporter fluorescence (15 h) (µM FITC); higher = stronger transcriptional activation; settings: library round: Round 2
Method: as §1

Variant	sfGFP reporter fluorescence [1]	sfGFP reporter fluorescence ([2]; ligand: 1 µM Pb)	sfGFP reporter fluorescence ([2]; ligand: 30 µM Zn)
TIDDP P61N D64K	0.106 ± 0.013	0.617 ± 0.019	1.75 ± 0.14
TGCAP Q121A	0.0482 ± 0.0011	0.0978 ± 0.0067	0.156 ± 0.0046
NGDDP M60L P61N D64N	0.291 ± 0.025	0.582 ± 0.11	2.53 ± 0.24
NGCDA L107C	0.757 ± 0.089	1.68 ± 0.17	3.37 ± 0.31
NGDDM I90L I125L	0.0615 ± 0.0043	0.0526 ± 0.0027	0.0576 ± 0.0035
TGDDP R111D E112H	0.0469 ± 0.002	0.0446 ± 0.0019	0.0529 ± 0.003
MGSDA	0.0442 ± 0.0017	0.0841 ± 0.0012	0.0513 ± 0.00078
TGSDY Q121A	0.0567 ± 0.0051	0.0961 ± 0.0073	0.443 ± 0.056
NGDAP P61N D64T E112I	0.11 ± 0.014	0.308 ± 0.03	1.7 ± 0.2
NMDDP L107C E109V	2.96 ± 0.17	3.18 ± 0.55	3.51 ± 0.14
TGDAL V108L	0.0451 ± 0.0016	0.073 ± 0.0021	0.281 ± 0.0062
TGSDP V108L	0.0452 ± 0.0017	0.0823 ± 0.0056	0.229 ± 0.022
TGAPL	0.0604 ± 0.0053	0.109 ± 0.013	0.301 ± 0.034
NMDDP M60L P61N K104V L107C	0.759 ± 0.1	1.83 ± 0.19	3.54 ± 0.46
NGDPP G124S I125L	0.0484 ± 0.0015	0.0455 ± 0.0014	0.0506 ± 0.001
NGADW L126I	0.0633 ± 0.0051	0.0592 ± 0.0043	0.317 ± 0.024
NGAPL	0.0797 ± 0.0073	0.16 ± 0.0081	1.22 ± 0.26
NMDAA K104R L107C	2.28 ± 0.3	3.13 ± 0.41	3.83 ± 0.4

Variant	sfGFP reporter fluorescence [1]	sfGFP reporter fluorescence ([2]; ligand: 1 µM Pb)	sfGFP reporter fluorescence ([2]; ligand: 30 µM Zn)
NLDDP G124A L129A	0.0419 ± 0.0017	0.0398 ± 0.0017	0.0426 ± 0.0023
TGDDA E25V	0.0619 ± 0.0073	0.072 ± 0.0079	0.252 ± 0.031
NGLAP P61T	0.217 ± 0.015	0.402 ± 0.021	1.9 ± 0.27
NTCDP M60L	0.222 ± 0.016	0.784 ± 0.021	2.43 ± 0.27
NGADP M60L D64K	1.59 ± 0.28	2.6 ± 0.28	3.98 ± 0.16
SGSPP	0.0484 ± 0.0013	0.123 ± 0.0072	0.394 ± 0.023
NGSAY L107V	0.12 ± 0.017	0.238 ± 0.042	1.97 ± 0.17
TGDDP V82I L85K	0.0407 ± 0.0021	0.0368 ± 0.00078	0.0458 ± 0.0007
NGDDR T136A T140A	0.0505 ± 0.0017	0.0665 ± 0.0039	0.801 ± 0.079
NGADL L129V	0.0491 ± 0.0012	0.0459 ± 0.00051	0.0502 ± 0.0022
TIDDP L107C E109H	0.247 ± 0.016	1.19 ± 0.15	2.03 ± 0.17
NMDAP L101V K104V	0.176 ± 0.024	0.55 ± 0.022	2.78 ± 0.34
NGDDW L110I S115G	0.0528 ± 0.0019	0.0476 ± 0.0019	0.325 ± 0.019
NHCDA	0.0569 ± 0.0056	0.0749 ± 0.0034	0.446 ± 0.063
NGYAP K104R	0.0664 ± 0.0054	0.0679 ± 0.0057	0.698 ± 0.11
NIDSP M60L	0.251 ± 0.048	0.739 ± 0.14	2.25 ± 0.49
NGCDP M60L P61N D64K K104V	0.179 ± 0.016	0.384 ± 0.049	1.39 ± 0.088
TGHPY	0.0455 ± 0.0011	0.116 ± 0.0064	0.214 ± 0.017
